Consider 2 proteins from publication PMC2175261 (The Journal of Cell Biology, 2000).

Series [1] deals with the molecule itself. Kind of series: pull-down.
Series [2] deals with the molecule itself. In words: pull-down. This is another data set of the same source.

Like-named read-outs stand apart in the source and are kept apart here.

B1: C2B domain of synaptotagmin Ib (residues 248–421) (domain or fragment, rat, UniProt P21707 248-421, looked up)
chain: NTVDFGHVTEEWRDLQSAEKEEQEKLGDICFSLRYVPTAGKLTVVILEAKNLKKMDVGGLSDPYVKIHLMQNGKRLKKKKTTIKKNTLNPYYNESFSFEVPFEQIQKVQVVVTVLDYDKIGKNDAIGKVFVGYNSTGAELRHWSDMLANPRRPIAQWHTLQVEEEVDAMLAVKK
As to B1, the binding result in “pull-down [1]” was “binds”.

B2: cytoplasmic domain of synaptotagmin Ib, D230,232N mutant (domain or fragment, rat, UniProt P21707 96-421, looked up)
chain: GGKNAINMKDVKDLGKTMKDQALKDDDAETGLTDGEEKEEPKEEEKLGKLQYSLDYDFQNNQLLVGIIQAAELPALDMGGTSDPYVKVFLLPDKKKKFETKVHRKTLNPVFNEQFTFKVPYSELGGKTLVMAVYNFNRFSKHDIIGEFKVPMNTVDFGHVTEEWRDLQSAEKEEQEKLGDICFSLRYVPTAGKLTVVILEAKNLKKMDVGGLSDPYVKIHLMQNGKRLKKKKTTIKKNTLNPYYNESFSFEVPFEQIQKVQVVVTVLDYDKIGKNDAIGKVFVGYNSTGAELRHWSDMLANPRRPIAQWHTLQVEEEVDAMLAVKK
Take B2: the binding result in “pull-down [2]” is “binds”.
